Measurements: patent publication US20170131281A1

Columns and labels:
[1] = target: HL60 cells surface antigens; experiment: flow cytometry on HL60 cells, sandwich with anti-c-myc-FITC
[2] = target: KG1 cells surface antigen (6B protein binding surface antigen, unidentified); experiment: flow cytometry on KG1 cells, sandwich with anti-c-myc-FITC

FITC+: % Vis [1]: 4.5%
FITC+: GeoMean [1]: 9.8
FITC+: mean [1]: 10.7
FITC+: median [1]: 8.9
FITC+: % Vis [2]: 100%
FITC+: GeoMean [2]: 28.1
FITC+: mean [2]: 29.4
FITC+: median [2]: 28.4
B1: 6B antibody in an scFv format (Clone 6B) (scFv, not shown: small tags and cut ends)
scFv: EVQLLESGGGLVQPGGSLRLSCAASGFTFSSYGMSWVRQAPGKGLEWVSTIRTAGRATEYADSVKGRFTISRDNSKNTLYLQMNSLRAEDTAVYYCAKSPQTFDYWGQGTLVTVSSGGGGSGGGGSGGGGSTDIQMTQSPSSLSASVGDRVTITCRASQSISSYLNWYQQKPGKAPKLLIYRASRLQSGVPSRFSGSGSGTDFTLTISSLQPEDFATYYCQQRLTIPITFGQGTKVEIKRAAA
